# Results as given in the Immune Epitope Database (IEDB).
# Key:
# [1] = target: HLA-B*40:01; assay: IEDB peptide-MHC binding, purified MHC/competitive/radioactivity; filed as Kd, often an IC50 or EC50 that approximates it; ≥ and ≤ were set here for values at or beyond the usual limits of such assays
# [2] = target: HLA-A*24:02; assay: as above
# [3] = target: HLA-A*26:01; assay: as above
# [4] = target: HLA-A*30:02; assay: as above
# [5] = target: HLA-A*23:01; assay: as above
# [6] = target: HLA-A*01:01; assay: as above
# [7] = target: HLA-A*29:02; assay: as above
# [8] = target: HLA-B*15:01; assay: IEDB peptide-MHC binding, purified MHC/competitive/fluorescence; filed as Kd, often an IC50 or EC50 that approximates it; ≥ and ≤ were set here for values at or beyond the usual limits of such assays
# [9] = target: HLA-A*30:01; assay: IEDB peptide-MHC binding, purified MHC/competitive/radioactivity; filed as Kd, often an IC50 or EC50 that approximates it; ≥ and ≤ were set here for values at or beyond the usual limits of such assays
# [10] = target: HLA-A*32:01; assay: as above
# [11] = target: HLA-B*44:02; assay: IEDB peptide-MHC binding, purified MHC/direct/fluorescence; filed as Kd, often an IC50 or EC50 that approximates it; ≥ and ≤ were set here for values at or beyond the usual limits of such assays
# [12] = target: HLA-B*40:01; assay: as above
# [13] = target: HLA-A*11:01; assay: as above
# [14] = target: HLA-B*27:05; assay: as above
# [15] = target: HLA-A*02:01; assay: as above
# [16] = target: HLA-A*03:01; assay: as above
# [17] = target: HLA-A*26:01; assay: as above
# [18] = target: HLA-B*58:01; assay: as above
# [19] = target: HLA-A*01:01; assay: as above
# [20] = target: HLA-A*31:01; assay: as above
# [21] = target: HLA-B*08:01; assay: as above
# [22] = target: HLA-A*24:03; assay: as above; conditions: source organism: Giardia lamblia ATCC 50803
# [23] = target: HLA-A*69:01; assay: as above
# [24] = target: HLA-B*15:01; assay: as above
# [25] = target: HLA-B*15:17; assay: IEDB peptide-MHC binding, purified MHC/competitive/fluorescence; filed as Kd, often an IC50 or EC50 that approximates it; ≥ and ≤ were set here for values at or beyond the usual limits of such assays
# [26] = target: HLA-B*07:02; assay: IEDB peptide-MHC binding, purified MHC/direct/fluorescence; filed as Kd, often an IC50 or EC50 that approximates it; ≥ and ≤ were set here for values at or beyond the usual limits of such assays
# [27] = target: HLA-B*44:03; assay: IEDB peptide-MHC binding, purified MHC/competitive/radioactivity; filed as Kd, often an IC50 or EC50 that approximates it; ≥ and ≤ were set here for values at or beyond the usual limits of such assays; conditions: source organism: Dengue virus 1 Brazil/97-11/1997
# [28] = source organism: Dengue virus 2 Jamaica/1409/1983
# [29] = source organism: SARS coronavirus Tor2
# [30] = source organism: Mammarenavirus whitewaterense
# [31] = source organism: Lassa virus Josiah
# [32] = source organism: Mammarenavirus brazilense
# [33] = source organism: Giardia lamblia ATCC 50803
# [34] = source organism: Dengue virus 1 Brazil/97-11/1997
# [35] = source organism: Mammarenavirus lassaense
# [36] = source organism: Comamonas sediminis
# [37] = source organism: Mammarenavirus juninense
# [38] = source organism: Influenza A virus (A/egret/Hong Kong/757.3/2002(H5N1))
# [39] = source organism: Corynebacterium glutamicum
# [40] = source organism: Corynebacterium efficiens
# [41] = source organism: Mammarenavirus guanaritoense
sequence,measurement,setting,value
TEIQMSSGNL,Kd,[1]; [28],0.00703 µM
NAAISDYDYY,Kd,[2]; [29],≥ 70.3 µM
same,Kd,[3]; [29],1.64 µM
same,Kd,[4]; [29],0.274 µM
same,Kd,[5]; [29],≥ 70 µM
same,Kd,[6]; [29],0.0124 µM
same,Kd,[7]; [29],0.688 µM
CSYKIGHHV,Kd,[2]; [30],≥ 29.2 µM
same,Kd,[3]; [30],≥ 64.5 µM
same,Kd,[4]; [30],0.0944 µM
same,Kd,[5]; [30],17.5 µM
same,Kd,[6]; [30],0.0591 µM
same,Kd,[7]; [30],≥ 26.3 µM
PEDPVEIALY,Kd,[2]; [31],≥ 70.3 µM
same,Kd,[3]; [31],≥ 69.7 µM
same,Kd,[4]; [31],0.961 µM
same,Kd,[5]; [31],≥ 70 µM
same,Kd,[6]; [31],≥ 34.4 µM
same,Kd,[7]; [31],15 µM
AEVRPVVSY,Kd,[8]; source organism: Bacillus anthracis str. A0488,0.0735 µM
RKIKAITSF,Kd,[8]; source organism: Bacillus cereus G9241,1.88 µM
LTGHMLDMY,Kd,[2]; [29],≥ 77.6 µM
same,Kd,[3]; [29],10.5 µM
same,Kd,[4]; [29],0.0728 µM
same,Kd,[5]; [29],≥ 77.8 µM
same,Kd,[6]; [29],0.000563 µM
same,Kd,[7]; [29],0.0611 µM
DTGNYILCY,Kd,[9]; [32],2.44 µM
same,Kd,[3]; [32],5.73 µM
same,Kd,[4]; [32],18 µM
same,Kd,[6]; [32],0.273 µM
same,Kd,[7]; [32],1.41 µM
same,Kd,[10]; [32],≥ 24.8 µM
WEGGHDLTV,Kd,[1]; source organism: Dengue virus 4 Philippines/H241/1956,1.85 µM
LSEMLNKEY,Kd,[9]; [32],9.77 µM
same,Kd,[3]; [32],≥ 77.9 µM
same,Kd,[4]; [32],14.7 µM
same,Kd,[6]; [32],0.00525 µM
same,Kd,[7]; [32],5.72 µM
same,Kd,[10]; [32],≥ 77.8 µM
TEWCCRSCTL,Kd,[1]; [28],0.00995 µM
SCDFNGGKI,Kd,[2]; [31],≥ 77.5 µM
same,Kd,[3]; [31],≥ 77.9 µM
same,Kd,[4]; [31],≥ 76.9 µM
same,Kd,[5]; [31],≥ 77.7 µM
same,Kd,[6]; [31],≥ 23.2 µM
same,Kd,[7]; [31],≥ 78.9 µM
KTSVDCNMY,Kd,[2]; [29],≥ 77.6 µM
same,Kd,[3]; [29],≥ 81.5 µM
same,Kd,[4]; [29],0.00266 µM
same,Kd,[5]; [29],≥ 77.8 µM
same,Kd,[6]; [29],0.0986 µM
same,Kd,[7]; [29],2.72 µM
IGAGICASY,Kd,[2]; [29],≥ 60 µM
same,Kd,[3]; [29],6.65 µM
same,Kd,[4]; [29],0.00118 µM
same,Kd,[5]; [29],≥ 77.8 µM
same,Kd,[6]; [29],≥ 47.8 µM
same,Kd,[7]; [29],0.0199 µM
ELINIPYCNY,Kd,[9]; [30],≥ 70.4 µM
same,Kd,[3]; [30],0.227 µM
same,Kd,[4]; [30],0.0888 µM
same,Kd,[6]; [30],15.8 µM
same,Kd,[7]; [30],1.81 µM
same,Kd,[10]; [30],≥ 28.3 µM
LFTKFFYLL,Kd,[2]; [29],0.11 µM
same,Kd,[3]; [29],≥ 38.1 µM
same,Kd,[4]; [29],≥ 83.3 µM
same,Kd,[5]; [29],0.154 µM
same,Kd,[6]; [29],≥ 78.1 µM
same,Kd,[7]; [29],6.96 µM
GYKETPFLTI,Kd,[2]; [32],0.159 µM
same,Kd,[5]; [32],0.139 µM
same,Kd,[7]; [32],0.108 µM
PPQATAKYL,Kd,[11]; [33],≥ 20 µM
same,Kd,[12]; [33],≥ 20 µM
same,Kd,[13]; [33],≥ 20 µM
same,Kd,[14]; [33],≥ 20 µM
same,Kd,[15]; [33],≥ 20 µM
same,Kd,[16]; [33],≥ 20 µM
same,Kd,[17]; [33],≥ 20 µM
same,Kd,[18]; [33],≥ 20 µM
same,Kd,[19]; [33],≥ 20 µM
same,Kd,[20]; [33],≥ 20 µM
same,Kd,[21]; [33],≥ 20 µM
same,Kd,[22],9.66 µM
same,Kd,[23]; [33],≥ 20 µM
same,Kd,[24]; [33],≥ 20 µM
IENTTANISL,Kd,[1]; [34],0.00315 µM
FFASFYYIW,Kd,[2]; [29],0.0209 µM
same,Kd,[3]; [29],≥ 26.2 µM
same,Kd,[4]; [29],≥ 67.1 µM
same,Kd,[5]; [29],0.176 µM
same,Kd,[6]; [29],≥ 37.6 µM
same,Kd,[7]; [29],0.0945 µM
TEHGTTATI,Kd,[1]; source organism: Dengue virus 1 Nauru/West Pac/1974,0.0571 µM
GEEVQVLAL,Kd,[1]; [28],0.00309 µM
HEWCCRSCTL,Kd,[1]; [34],0.00399 µM
HDLMMGYAWI,Kd,[2]; [35],≥ 40.1 µM
same,Kd,[3]; [35],≥ 69.7 µM
same,Kd,[4]; [35],19.2 µM
same,Kd,[5]; [35],8.22 µM
same,Kd,[6]; [35],≥ 51 µM
same,Kd,[7]; [35],≥ 63.9 µM
TSTGNYNYKY,Kd,[2]; [29],≥ 70.3 µM
same,Kd,[3]; [29],1.26 µM
same,Kd,[4]; [29],0.0423 µM
same,Kd,[5]; [29],≥ 70 µM
same,Kd,[6]; [29],0.0965 µM
same,Kd,[7]; [29],0.294 µM
KSLGIDQIW,Kd,[25]; [36],0.00135 µM
same,Kd,[12]; [36],≥ 20 µM
same,Kd,[13]; [36],≥ 20 µM
same,Kd,[14]; [36],≥ 20 µM
same,Kd,[26]; [36],≥ 20 µM
same,Kd,[15]; [36],≥ 20 µM
same,Kd,[16]; [36],≥ 20 µM
same,Kd,[17]; [36],≥ 20 µM
same,Kd,[18]; [36],0.00829 µM
same,Kd,[19]; [36],≥ 20 µM
same,Kd,[20]; [36],4.66 µM
same,Kd,[21]; [36],≥ 20 µM
same,Kd,[23]; [36],≥ 20 µM
same,Kd,[24]; [36],1.77 µM
SMRSVQRNTV,Kd,[2]; [37],≥ 70.3 µM
same,Kd,[3]; [37],≥ 69.7 µM
same,Kd,[4]; [37],7.86 µM
same,Kd,[5]; [37],≥ 70 µM
same,Kd,[6]; [37],2.99 µM
same,Kd,[7]; [37],≥ 71.4 µM
RYYDGNIYDL,Kd,[2]; source organism: Variola virus,0.0879 µM
same,Kd,[3]; source organism: Variola virus,≥ 69.7 µM
same,Kd,[4]; source organism: Variola virus,0.0152 µM
same,Kd,[5]; source organism: Variola virus,0.0135 µM
same,Kd,[6]; source organism: Variola virus,2.61 µM
same,Kd,[7]; source organism: Variola virus,≥ 61.8 µM
YYPSARIVY,Kd,[2]; [29],≥ 105 µM
same,Kd,[3]; [29],1.37 µM
same,Kd,[4]; [29],≥ 78.9 µM
same,Kd,[5]; [29],≥ 84.5 µM
same,Kd,[6]; [29],≥ 45.5 µM
same,Kd,[7]; [29],≥ 88.2 µM
IAMGYVVSSF,Kd,[9]; [37],9.1 µM
same,Kd,[3]; [37],0.53 µM
same,Kd,[4]; [37],0.22 µM
same,Kd,[6]; [37],5.14 µM
same,Kd,[7]; [37],1.49 µM
same,Kd,[10]; [37],0.996 µM
YYCKSHKPPI,Kd,[2]; [29],0.193 µM
same,Kd,[3]; [29],≥ 69.7 µM
same,Kd,[4]; [29],11.5 µM
same,Kd,[5]; [29],0.207 µM
same,Kd,[6]; [29],≥ 48.3 µM
same,Kd,[7]; [29],1.62 µM
HEGYEEFTM,Kd,[11]; [38],≥ 20 µM
same,Kd,[12]; [38],0.0119 µM
GEVDSFSLGI,Kd,[1]; [34],0.0567 µM
same,Kd,[27],0.0194 µM
ITWETPMIW,Kd,[25]; [39],≤ 0.001 µM
same,Kd,[12]; [40],≥ 20 µM
same,Kd,[13]; [40],≥ 20 µM
same,Kd,[14]; [40],≥ 20 µM
same,Kd,[26]; [40],≥ 20 µM
same,Kd,[15]; [40],≥ 20 µM
same,Kd,[16]; [40],≥ 20 µM
same,Kd,[17]; [40],≥ 20 µM
same,Kd,[18]; [39],0.00443 µM
same,Kd,[20]; [40],≥ 20 µM
same,Kd,[21]; [40],≥ 20 µM
same,Kd,[23]; [39],0.507 µM
same,Kd,[24]; [40],≥ 20 µM
FYSEESPTEY,Kd,[9]; [41],≥ 48.7 µM
same,Kd,[3]; [41],7.36 µM
same,Kd,[4]; [41],≥ 27 µM
same,Kd,[6]; [41],0.192 µM
same,Kd,[7]; [41],0.0801 µM
same,Kd,[10]; [41],≥ 69.9 µM
KEFAAGRKSL,Kd,[1]; [28],0.00963 µM
KEEESEGAI,Kd,[1]; source organism: Dengue virus 3 Martinique/1243/1999,0.0464 µM
VEEQDANFV,Kd,[1]; [34],0.412 µM
IEEGRTLRVL,Kd,[1]; [34],0.0718 µM
VFNNYMPYVF,Kd,[2]; [29],0.0112 µM
same,Kd,[3]; [29],≥ 21.6 µM
same,Kd,[4]; [29],7.11 µM
same,Kd,[5]; [29],0.00832 µM
same,Kd,[6]; [29],≥ 20.6 µM
same,Kd,[7]; [29],0.00922 µM
